Laboratory results taken from the Human Domainome abundance scans (Beltran et al. 2025).
± gives the uncertainty stated by the source.

B1: Gamma-crystallin D, residues 90 to 170; numbered along this chain, P07320 (parent)
chain: IRLYEREDYRGQMIEFTEDCSCLQDRFRFNEIHSLNVLEGSWVLYELSNYRGRQYLLMPGDYRRYQDWGATNARVGSLRRV

Variants of: B1
Experiment: abundance fitness (aPCA) (normalised: wild type 0, dead -1); higher = more abundant; growth selection in yeast, the domain comes from the species named
Conditions: Homo sapiens

| Variant | abundance fitness |
| --- | --- |
| D25C | -0.308 ± 0.16 |
| R2V | -0.146 ± 0.3 |
| R2L | -0.162 ± 0.33 |
| L23T | 0.004 ± 0.088 |
| E39F | -0.262 ± 0.31 |
| E39T | 0.059 ± 0.11 |
| Y50I | -0.658 ± 0.44 |
| Y50R | -0.19 ± 0.081 |
| Y50K | -0.234 ± 0.21 |
| E15G | -0.08 ± 0.061 |
| E15M | -0.013 ± 0.092 |
| R6T | 0.005 ± 0.11 |
| R6Y | -0.092 ± 0.26 |
| L56D | 0.294 ± 0.2 |
| L56T | 0.129 ± 0.11 |
| L38R | 0.029 ± 0.073 |
| V75R | -0.863 ± 0.14 |
| V75I | -0.201 ± 0.24 |
| V75M | -0.024 ± 0.12 |
| V75A | -0.017 ± 0.097 |
| V75N | -0.205 ± 0.19 |
| G52H | -0.43 ± 0.19 |
| G52W | -0.697 ± 0.11 |
| R10L | -0.064 ± 0.096 |

| Variant | abundance fitness |
| --- | --- |
| R10C | 0.046 ± 0.12 |
| D8G | -0.004 ± 0.074 |
| D8V | -0.049 ± 0.09 |
| D8W | -0.153 ± 0.098 |
| E18P | -0.584 ± 0.14 |
| E18A | -0.018 ± 0.057 |
| E18R | 0.048 ± 0.079 |
| E18L | 0.001 ± 0.072 |
| Q24C | -0.025 ± 0.15 |
| Q24I | -0.038 ± 0.17 |
| Q12V | 0.1 ± 0.089 |
| Q12Y | 0.007 ± 0.19 |
| Q12D | -0.019 ± 0.14 |
| Q66K | 0.269 ± 0.17 |
| Q66M | -0.048 ± 0.15 |
| Y9V | -0.396 ± 0.073 |
| Y9Q | 0.07 ± 0.11 |
| N30A | 0.028 ± 0.11 |
| N30I | 0.187 ± 0.21 |
| V37Q | -0.306 ± 0.15 |
| V37L | 0.096 ± 0.088 |
| W68K | 0.16 ± 0.14 |
| W68D | 0.062 ± 0.22 |
| W68T | 0.149 ± 0.089 |

| Variant | abundance fitness |
| --- | --- |
| W68Q | -0.355 ± 0.11 |
| W68F | 0.194 ± 0.26 |
| E7F | -0.148 ± 0.19 |
| E7R | -0.043 ± 0.065 |
| G69L | 0.101 ± 0.085 |
| G69M | 0.24 ± 0.13 |
| R74L | -0.002 ± 0.071 |
| R74Q | -0.02 ± 0.098 |
| R74K | -0.134 ± 0.15 |
| R74P | 0.005 ± 0.093 |
| S41V | -0.138 ± 0.095 |
| S41E | 0.076 ± 0.12 |
| V81I | -0.054 ± 0.15 |
| T71H | 0.05 ± 0.18 |
| R64N | 0.159 ± 0.34 |
| A73C | 0.005 ± 0.14 |
| A73R | 0.121 ± 0.059 |
| Q54C | -0.206 ± 0.11 |
| E46A | -0.083 ± 0.086 |
| E46H | -0.161 ± 0.23 |
| C20P | -0.486 ± 0.13 |
| C20H | -0.104 ± 0.19 |
| G60W | -0.133 ± 0.1 |
| G60H | -0.225 ± 0.2 |

| Variant | abundance fitness |
| --- | --- |
| G60R | -0.04 ± 0.055 |
| G60F | -0.188 ± 0.2 |
| D61M | -0.008 ± 0.14 |
| D61W | -0.237 ± 0.12 |
| Y45G | -0.441 ± 0.061 |
| Y45S | -0.157 ± 0.089 |
| Y45R | -0.439 ± 0.072 |
| Y45C | -0.273 ± 0.14 |
| N36P | -1.23 ± 0.23 |
| F16H | 0.052 ± 0.31 |
| F16P | 0.109 ± 0.09 |
| R79W | -0.36 ± 0.11 |
| R79D | -0.552 ± 0.32 |
| S34G | -0.099 ± 0.045 |
| S34D | -0.936 ± 0.28 |
| S34M | -0.689 ± 0.092 |
| L57W | -0.623 ± 0.13 |
| L57T | -0.016 ± 0.17 |
| N49E | 0.054 ± 0.11 |
| N49L | 0.045 ± 0.094 |
| N49T | -0.561 ± 0.19 |
| N49S | -0.09 ± 0.082 |
| R28K | 0.139 ± 0.13 |
| R28T | -0.002 ± 0.14 |

| Variant | abundance fitness |
| --- | --- |
| R28G | -0.031 ± 0.066 |
| R26H | 0.008 ± 0.21 |
| R26D | -0.053 ± 0.12 |
| R26G | -0.018 ± 0.059 |
| M13D | 0.034 ± 0.14 |
| M58N | 0.037 ± 0.17 |
| M58G | 0.093 ± 0.052 |
| M58H | 0.008 ± 0.18 |
| M58D | 0.021 ± 0.13 |
| A70F | 0.048 ± 0.11 |
| G40A | -0.014 ± 0.08 |
| L78Q | -0.908 ± 0.5 |
| L78P | -0.708 ± 0.2 |
| W42S | -0.865 ± 0.1 |
| E5S | 0.046 ± 0.071 |
| E5R | 0.023 ± 0.068 |
| S48Q | -0.191 ± 0.17 |
| Y65G | 0.159 ± 0.06 |
| Y65V | -0.047 ± 0.083 |
| Y65P | 0.051 ± 0.11 |
| R51D | -0.027 ± 0.19 |
| R51C | -0.023 ± 0.14 |
| R51L | 0.034 ± 0.075 |
| L44V | 0.035 ± 0.1 |

| Variant | abundance fitness |
| --- | --- |
| L44D | -0.93 ± 0.2 |
| V43H | -0.129 ± 0.45 |
| I32G | 0.063 ± 0.062 |
| I32P | -0.003 ± 0.12 |
| I32N | -0.101 ± 0.22 |
| L47E | -0.12 ± 0.16 |
| Y62M | 0.096 ± 0.086 |
| Y62V | 0.041 ± 0.066 |
| Y62D | -0.904 ± 0.18 |
| Y62G | -0.242 ± 0.064 |
| L35V | 0.048 ± 0.093 |
| L35T | -0.034 ± 0.12 |
| R63F | 0.004 ± 0.17 |
| R63T | 0.039 ± 0.11 |
| R63K | 0.061 ± 0.13 |
| S21T | -0.047 ± 0.12 |
| T17C | 0.007 ± 0.14 |
| E31D | -0.096 ± 0.18 |
| E31P | 0.152 ± 0.084 |
| E31I | 0.139 ± 0.48 |
| E31T | 0.048 ± 0.12 |
| H33A | 0.039 ± 0.073 |
| H33N | -0.082 ± 0.16 |
| H33L | -0.024 ± 0.07 |

| Variant | abundance fitness |
| --- | --- |
| H33P | 0.062 ± 0.092 |
| D19W | -0.108 ± 0.11 |
| D19H | -0.033 ± 0.17 |
| D19E | 0.035 ± 0.13 |
| F27A | -0.056 ± 0.11 |
| F27G | -0.106 ± 0.06 |
| N72P | 0.03 ± 0.076 |
| N72G | -0.001 ± 0.078 |
| N72F | 0.118 ± 0.12 |
| N72M | 0.131 ± 0.11 |
| F29Q | 0.041 ± 0.12 |
| S77R | -1.01 ± 0.17 |
| D67M | 0.047 ± 0.19 |
| Y4R | -0.22 ± 0.11 |
| Y4E | -0.881 ± 0.3 |
| Y4H | 0.219 ± 0.44 |
| I14S | 0.107 ± 0.1 |
| I14G | -0.092 ± 0.069 |
| I14M | 0.086 ± 0.12 |
| Y55G | 0.017 ± 0.066 |
| Y55F | -0.044 ± 0.18 |
| Y55D | -0.23 ± 0.18 |
| Y55V | 0.082 ± 0.11 |
